According to the supplement of paper PMC9732359:
± gives the uncertainty stated by the source.

Experiment: protein stability index of a GFP-peptide fusion (yeast GPS) (PSI 1-4); higher = more stable; sorted into four equal gates, so the index is relative within each strain
In short: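 Each library plasmid carries Cherry plus GFP with a tiled 17-residue yeast protein peptide fused downstream, and the pooled library was carried in yeast. Mid-log cultures in leucine-free medium were sorted into four equal gates by GFP/Cherry ratio. Reads from Illumina sequencing of PCR-amplified plasmids from each gate were assigned to strains by barcodes. Per peptide, the protein stability index was computed as the summed products of gate read frequency and gate number.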

| Sequence | protein stability index (doa10∆) | protein stability index (pdr5∆) | protein stability index (san1∆) | protein stability index (ubr1∆) |
| --- | --- | --- | --- | --- |
| VQGSTLAQLTSKLIPEV [RPS1A] | 2.79 ± 0.061 | 2.96 ± 0.063 | 3.01 ± 0.051 | 2.76 ± 0.045 |
| VQKQTRAGQRTRFKAVV [RPS2] | 3.04 ± 0.12 | 3.35 ± 0.14 | 3.31 ± 0.15 | 3.23 ± 0.088 |
| VQKRDEVKEQLGILKKK [SMC4] | 2.75 ± 0.095 | 3.01 ± 0.077 | 3.24 ± 0.061 | 2.78 ± 0.05 |
| VQLLLHINSILLARVIQ [SNF11] | 1.84 ± 0.12 | 1.27 ± 0.076 | – | 1.47 ± 0.087 |
| VQQQQQQQLRNQIQRQQ [SNF5] | 2.16 ± 0.071 | 2.5 ± 0.12 | 2.07 ± 0.2 | 2.06 ± 0.074 |
| VQSGQIYINKSVPTNSA [RET1] | 3.29 ± 0.14 | 3.32 ± 0.082 | 3.35 ± 0.091 | 3.33 ± 0.086 |
| VQSKARYTVRTFGIRRN [RPL11A] | 1.78 ± 0.083 | 1.86 ± 0.073 | 1.35 ± 0.11 | 1.53 ± 0.086 |
| VQYLRSVQDLGGSATAR [YML031W/NDC1] | 2.14 ± 0.13 | 1.5 ± 0.069 | 1.53 ± 0.22 | 1.57 ± 0.064 |
| VRAVNTGMEPGKTSFFQ [RPP0] | 2.58 ± 0.16 | 2.78 ± 0.15 | 2.8 ± 0.18 | 2.42 ± 0.25 |
| VRDTSPHGISVFLSNLV [BRR2] | 1.35 ± 0.1 | 1.54 ± 0.077 | 2.55 ± 0.078 | 2.34 ± 0.049 |
| VRGGNIEIMGILMGFTL [RRI1] | 2.32 ± 0.074 | 2.56 ± 0.092 | 2.31 ± 0.16 | 2.9 ± 0.096 |
| VRRGNRKRPVPKGATYG [RPL15A] | – | 3.27 ± 0.19 | 3.6 ± 0.18 | 3.44 ± 0.14 |
| VRSANEDGTFSVLYPDE [RRP43] | 3.13 ± 0.088 | 3.02 ± 0.088 | 3.18 ± 0.06 | 3.28 ± 0.1 |
| VRTRGGNKKYRALRIET [RPS8A] | 2.71 ± 0.032 | 2.52 ± 0.03 | 2.71 ± 0.031 | 2.853 ± 0.022 |
| VSALQMLKQHLFKYQGH [PUP1] | 2.55 ± 0.073 | 2.71 ± 0.076 | 2.65 ± 0.059 | 2.57 ± 0.05 |
| VSDDESNGEVLEVGKNN [RPN14] | 3.19 ± 0.1 | 2.99 ± 0.16 | 3.07 ± 0.16 | 3.24 ± 0.056 |
| VSFRTHNSHLSLNYKFT [SRP21] | 3.01 ± 0.048 | 2.99 ± 0.046 | 3 ± 0.051 | 3.15 ± 0.039 |
| VSGDAAALFRLHKFLTK [SWI3] | 2.92 ± 0.14 | 2.6 ± 0.15 | 2.72 ± 0.098 | 3.08 ± 0.11 |
| VSLPEGSFKRVKPQYDE [BRR2] | 3.16 ± 0.15 | 3.09 ± 0.12 | 3.13 ± 0.11 | 2.95 ± 0.14 |
| VSNENKKNIDYQNRSTR [RRI1] | 3.13 ± 0.065 | 3.04 ± 0.067 | 3.2 ± 0.062 | 3.25 ± 0.055 |
| VSNPIRKVFKPSQGMVV [FAS1] | 3.08 ± 0.068 | 2.74 ± 0.061 | 2.87 ± 0.14 | 2.66 ± 0.068 |
| VSSKCNDIHLRFMRFLA [ECM29] | 2.23 ± 0.083 | 2.38 ± 0.06 | 2.74 ± 0.18 | 2.08 ± 0.08 |
| VSSTIPRETIPFLHLRK [FAS2] | 2.93 ± 0.27 | 2.35 ± 0.13 | 2.79 ± 0.16 | 2.6 ± 0.15 |
| VSTAAAATVRSTIRRLR [RPL43A] | 2.54 ± 0.076 | 2.8 ± 0.07 | 2.13 ± 0.1 | 2.95 ± 0.057 |
| VSTKMHRTIVIRRAYLH [RPS11A] | 1.37 ± 0.047 | 1.14 ± 0.054 | 1.54 ± 0.087 | 1.12 ± 0.033 |

| Sequence | protein stability index (doa10∆) | protein stability index (pdr5∆) | protein stability index (san1∆) | protein stability index (ubr1∆) |
| --- | --- | --- | --- | --- |
| VSTPEKWDITTRNSNNL [BRR2] | 3.27 ± 0.14 | 3.19 ± 0.17 | 3.26 ± 0.082 | 3.04 ± 0.069 |
| VTIASEIYYDPDPRSTV [RPO21] | 2.41 ± 0.14 | 2.86 ± 0.14 | – | 2.52 ± 0.11 |
| VTIREQINIMPSLKAHF [SIR3] | 2.53 ± 0.077 | 2.83 ± 0.075 | 2.85 ± 0.059 | 2.68 ± 0.043 |
| VTKEYFQDVYDLTGSEP [FAS1] | 2.53 ± 0.23 | 2.82 ± 0.078 | 1.43 ± 0.18 | 2.68 ± 0.092 |
| VTKQSELNSSEDILEDM [SMC1] | 3.37 ± 0.065 | 3.25 ± 0.059 | 3.22 ± 0.041 | 3.18 ± 0.049 |
| VTRLFFICSIIQTVVIS [YML031W/NDC1] | 1.23 ± 0.051 | 1.28 ± 0.046 | 1.46 ± 0.076 | 1.75 ± 0.05 |
| VTTKDDLSGADIQAMCT [RPT2] | 3.15 ± 0.07 | 3.3 ± 0.09 | 3.28 ± 0.038 | 3.35 ± 0.06 |
| VTTNINWRSFNAKIIDA [SRP68] | 3.14 ± 0.081 | 3 ± 0.083 | 3.06 ± 0.059 | 3.18 ± 0.05 |
| VTYALSGYVRSRGESDD [RPS21A] | 3.3 ± 0.22 | 3.07 ± 0.29 | 3.2 ± 0.16 | 3.3 ± 0.19 |
| VVAKKDFNQAKHEEIDT [RPS10A] | 3.51 ± 0.2 | 2.54 ± 0.19 | 3.22 ± 0.099 | 3.09 ± 0.081 |
| VVDGTVVSCSQHGFEVQ [RPB7] | 3.08 ± 0.071 | 3.11 ± 0.058 | 3.13 ± 0.068 | 3.28 ± 0.07 |
| VVDHHVENELLQVDVDI [RRP42] | 3.4 ± 0.13 | 3.25 ± 0.21 | 2.83 ± 0.17 | – |
| VVDPKTSIEKSSEILSY [YML103C/NUP188] | 1.49 ± 0.087 | 1.43 ± 0.13 | 1.16 ± 0.12 | 1.12 ± 0.063 |
| VVDVALKYPELSIKNSF [NUT1] | 3.04 ± 0.071 | 2.94 ± 0.056 | 2.97 ± 0.059 | 2.77 ± 0.047 |
| VVEKEKIESLAGGGESD [UBP6] | 3.35 ± 0.2 | 2.84 ± 0.24 | 2.89 ± 0.19 | 3.34 ± 0.15 |
| VVIDAKDHLLGRLASTI [RPL16B] | 1.33 ± 0.066 | 1.25 ± 0.07 | 1.17 ± 0.12 | 1.35 ± 0.078 |
| VVKASELDQFWQEYSSV [SRP14] | 3.04 ± 0.061 | 2.9 ± 0.071 | 3.14 ± 0.072 | 3.27 ± 0.048 |
| VVLYNYYLGQYYGCLEN [CSN12] | 2.5 ± 0.17 | 2.57 ± 0.15 | 2.51 ± 0.11 | 1.97 ± 0.13 |
| VVNSNFAKEHNATVNLA [YJR042W/NUP85] | 2.82 ± 0.1 | 2.32 ± 0.12 | 2.75 ± 0.078 | 2.67 ± 0.13 |
| VVPNEKADDDSVTIISA [ASC1] | 2.98 ± 0.072 | 2.9 ± 0.082 | 3.05 ± 0.049 | 2.91 ± 0.076 |
| VVQDSQTATQLLERGRL [SMC2] | 2.9 ± 0.053 | 2.87 ± 0.08 | 2.81 ± 0.054 | 2.5 ± 0.058 |
| VVVSGKLRAARAKAMKF [RPS3] | – | – | – | 3.28 ± 0.29 |
| VWDKFAVNLLNCPHSDS [SSN2] | – | 2.81 ± 0.27 | – | – |
| VYAFKAKNKSTRINGLN [REC8] | 1.53 ± 0.1 | 1.65 ± 0.094 | 1.77 ± 0.19 | 1.59 ± 0.12 |
| WDLLQSGSQNISEFDSF [RPN12] | 3.38 ± 0.16 | 3.14 ± 0.09 | 3.05 ± 0.12 | 3.22 ± 0.067 |
